Source: the DeepSol protein solubility set

Test: soluble on expression in E. coli; label from the status in PepcDB or PDB records

Row | Sequence | soluble on expression in E. coli
1 | MQQALLDHLRVVTEEEQRILDGVAEVDKDLYTSGKDFTVDSAKMLSEGKLIAVRTHTRFVHFPSHRHNYIEVLYVCQGQLTNIIGGKEVVIHAGELLFLNQYTRHEILPAGEEDIAINFMILPEFFDVAYTMAGNNNVLADFLVNVLRQDEERGEYLHFKVAEVLQIQNLLENMIYSLVTGKGDQNRINQTTMGLIFLYLLESVQYAEMRLPNQYENMIIMTTLDYIEQQYKTATLTELCEKLHLPMHMLSKMIRKNTGFNFKELLQRKRLNKAVELMCETDLPISDIIAAVGYENGSYFHRVFKERYHTTPRAFRVANGKEERVRL | not soluble
2 | MQQPEQYCRFLCLVAHEFFHLWNIKRIRPQAFEVFDYDSENYTTSLWFVEGVTSYFDQLIPLWAGLFDAPTYLKLLSDSLNRYFHTPGRFVQSLSAASFDAWIKLYRPDENSINSQMSYYLKGELVALEHHHHHH | soluble
3 | MQRGKVKWFNNEKGYGFIEVEGGSDVFVHFTAIQGEGFKTLEEGQEVSFEIVQGNRGPQAANVTKEA | soluble
4 | MQRKLNQSLLLAEAYFKRKFTMPEVNYELRGIKAGVAYLQKNEIKFNRTLLQENTDEFIRQVVPHELAHLIVYQMFGRVKPHGKEWQLVMNEIFKLPADTCHQFDIKNVQGKTFEYRCACQTHFLTIRRHNKIMKENIEYLCKKCRGKLVFVDDEELEHHHHHH | not soluble
5 | MQSKLITELTDLETAFHIRKEVFVKEQGVPLTDEFDTFDEIGEQCKHILVYYHELPVGTGRIRFVDGVGKLERICILKDYRTYGLGKVIIQTLEEIARNEQATKVKLHGQTQAEGFYKKLGYETSSDIFMEDGIPHILMTKMLS | not soluble
6 | MQSLDPLFARLSRSKFRSRFRLGMKERQYCLEKGAPVIEQHAADFVAKRLAPALPANDGKQTPMRGHPVFIAQHATATCCRGCLAKWHNIPQGVSLSEEQQRYIVAVIYHWLVVQMNQP | soluble
7 | MQSLMNNPVTRSNAPCLIVGIGYTTGSVRDLAQRAADYTPPLGDNATADERRQFGQADRFADFIDSELTAFLESRYTLNRNETAVFGHSFGALFGLYSLLSHRCFRRHWLVSPSIWWHNRRILDFMPSENRLDGIDACLNIGALERSSGCKRREERDMAGQAEQMAAELDRRGTAVFFREYPNADHGNVPFYSLTDCVEYLRE | not soluble
8 | MQSRKRLDAELVRRKIARSREQAVEMIKDGRVHVQGFVAKKPATQVTPEASIRVEDAGLDDWASRGAHKLLGALAEFKSKGLNVSGRRALDAGASTGGFTDVLLRESASEVVAVDVGYGQLIWRLQNDARVKVLDRTNIRNLSLEITDGPCDLMVGDLSFISLKLTLPAIAACMSDGADLLPMVKPQFEVGKERLGHGGVVRDPKLRAEVTEDIALFAQQLGLSFVDVVASPLPGPSGNVEYFLWLKKDSGRSAKGLHEIHEKVAEAVQKGPQ | not soluble
9 | MQSYTNRICAVCGDTPAKIHYGVLACFGCKGFFRRAVKDGRNKYVCRFEKNCEVTKFERNACRYCRFRKCLLVGMNPDYVRPDREKSKKGKTVLSKKKSVSRSLSYRLADPSDWTSFLSPSSRKQLSEIGKLAETCSTSTNFDGIGNFSLKSLIADRSLARKTGDSEAMDCSNSPRQLNEQFLGIERIVQCVDYIDRFLVMLEEEHCRKFSVEDKSALISDTMIHLLLFESTSRFVAKGAPGLEDLKLSLAQLPICTTHLTQKIADVFETYLRKPPSIIEYSVLKAYIVLSAESTVLSNSLNESLSLARENLSELLFKVIKHSRNKTSISAANSLSTILHFVYESRNLASRIRQSQQPFFVRDSDPKIPFHKILTDIINPEVSDLLLTTANCRKLSTQMGSSLSSVPPVPPPSDTVPLFHFSPPSLSPCQISAPPPPQQQYTDYSQMPSTSSYPANSSPFQSPYRPNSLSSFPKIPLEMTKSIEEFLRPNGMTTDEMNKPLEKNWADGFRLTPVFNKDIVSQFFPELSNINQHHPF | not soluble
10 | MQTELTGKLQKLGFTENEAKIYIGLLRQGEVTAREIHEFTHVPRTKIYSTLNRMSKKKYIEVIEGTPAYFRSIDPEQLLERLRDEFLFSLNETLEELNSAGYGMKNKCC | not soluble
11 | MQTENKTSPYYRTKLRGLYTTAKADAEAECSILRRALDKIAEIKSLLEERRIAARMAGVYSDNDPPRKTMRRGVLMTLLQQSAMTLPLWIGKPGESPPPLCGAIPASSDYVAKQGDKVAARVKAVDGDEQWILAEVVSYNHSTNKYEVDDIDEEGKERHTLSRRRIIPLPQWEANPETDPEALFSKDQLVLALYPQTTCFYRALIHTPPHRPQDDYSVLFEDTSYADGYSPPLNVAQRYVVACKENKKK | not soluble
12 | MQTFEIKEEFLVDGKPTKLISGAIHYFRMTPAQWEDSLYNLKALGANTIETYIPWNLHEPVEGVYDFEGMKDIVAFVSLAQELGLMVILRPSVYICAEWEFGGLPAWLLKEHVRLRSTDPRFIAKVRTYFSVLLPKLVPLQVTHGGPVIMMQVENEYGSYGMEKEYLRQTKQVMEEFGIDVPLFTSDGAWEEVLDVGTLIEEDVFVTGNFGSHSKENATVMKAFMAKHDKKWPIMCMEYWDGWFNRWGEPIIKRDGQDLANEVKDMLALGSLNLYMFHGGTNFGFYNGCSARGVLDLPQVTSYDYDALLTEAGEPTEKYFHVQRAIKEVCPEVWQAEPRRKTFGSLGTFPVQNSVSLLAVKDQMMTAQETMYPITMEEAESGYGYMLYSVNLKNYHHENKLKVVEASDRLHLFADGSLQTIQYQENLREEVMIKGTPEKEWIELDVLVENLGRVNYGFKLNGPTQVKGIRGGIMQDIHFHQGYRQYALTLSADQLKKIDYTAGKNPAQPSFYQAEFTLTDLADTFIDCRSYGKGVVIVNGINLGRYWQRGPIHSLYCPKEFLKKGTNEIVIFETEGIEINELIFCGQPIVKKLLTNDFSEIGSNIHNHIDS | not soluble
13 | MQTSNITNHERNDSSWMSTVKSTTEVSWNKLSFCDILLKIITFGIYSPHETLAEKHSEKKLMDSFSPSLSQDKMDGEFAHANIDGISIRLCLNKGICSVFYLDGDKIQSTQLSSKEYNNLLSSLPPKQFNLGKVHTITAPVSGNFKTHKPAPEVIETAINCCTSIIPNDDYFHVKDTDFNSVWHDIYRDIRASDSNSTKIYFNNIEIPLKLIADLINELGINEFIDSKKELQMLSYNQVNKIINSNFPQQDLCFQTEKLLFTSLFQDPAFISALTSAFWQSLHITSSSVEHIYAQIMSENIENRLNFMPEQRVINNCGHIIKINAVVPKNDTAISASGGRAYEVSSSILPSHITCNGVGINKIETSYLVHAGTLPSSEGLRNAIPPESRQVSFAIISPDV | not soluble
14 | MQTSPLLTQLMEALRCLPGVGPKSAQRMAFTLLQRDRSGGMRLAQALTRAMSEIGHCADCRTFTEQDVCNICSNPRRQENGQICVVESPADIYAIEQTGQFSGRYFVLMGHLSPLDGIGPDDIGLDRLEQRLASEKISELILATNPTVEGEATANYIAELCAEAGVEASRIAHGVPVGGELEMVDGTTLSHSLAGRHKIIF | not soluble
15 | MQVLHVCSEMFPLLKTGGLADVIGALPAAQIADGVDARVLLPAFPDIRRGVTDAQVVSRRDTFAGHITLLFGHYNGVGIYLIDAPHLYDRPGSPYHDTNLFAYTDNVLRFALLGWVGAEMASGLDPFWRPDVVHAHDWHAGLAPAYLAARGRPAKSVFTVHNLAYQGMFYAHHMNDIQLPWSFFNIHGLEFNGQISFLKAGLYYADHITAVSPTYAREITEPQFAYGMEGLLQQRHREGRLSGVLNGVDEKIWSPETDLLLASRYTRDTLEDKAENKRQLQIAMGLKVDDKVPLFAVVSRLTSQKGLDLVLEALPGLLEQGGQLALLGAGDPVLQEGFLAAAAEYPGQVGVQIGYHEAFSHRIMGGADVILVPSRFAPCGLTQLYGLKYGTLPLVRRTGGLADTVSDCSLENLADGVASGFVFEDSNAWSLLRAIRRAFVLWSRPSLWRFVQRQAMAMDFSWQVAAKSYRELYYRLKLEHHHHHH | soluble
16 | MQVLVRDNNVDQALRALKKKMQREGIFREMKMRGYYEKPSEKRAREKAEAVRRTRKLARKRAQREGLISNGRGSPLKLEHHHHHH | not soluble
